Patent US20230357411A1

Biological target: TrKA (ELISA antigen, target Human-TrKA) (human) (UniProt P04629)
Assay: ELISA, antibody 0 to 20 µg/mL, plateau

TrKA (ELISA antigen, target Human-TrKA) (human), sequence (P04629 33-423 limits assumed): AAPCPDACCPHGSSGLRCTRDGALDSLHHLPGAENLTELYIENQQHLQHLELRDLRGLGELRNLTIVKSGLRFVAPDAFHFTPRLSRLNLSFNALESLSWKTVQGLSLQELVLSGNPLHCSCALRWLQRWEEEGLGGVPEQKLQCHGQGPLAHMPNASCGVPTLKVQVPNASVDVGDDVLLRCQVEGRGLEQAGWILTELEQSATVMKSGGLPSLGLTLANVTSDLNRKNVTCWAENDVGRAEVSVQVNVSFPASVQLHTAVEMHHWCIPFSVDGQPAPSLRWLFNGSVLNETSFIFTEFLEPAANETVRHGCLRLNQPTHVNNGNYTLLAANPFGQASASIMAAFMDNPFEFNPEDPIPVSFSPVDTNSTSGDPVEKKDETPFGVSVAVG

Binder	OD450
humanized anti-TrkA monoclonal antibody H1L1-IgG4 (antibody) heavy: EVQLLESGGGLVQPGGSLKLSCKASGYAFTNYWLGWMKQRPGHGLEWIGDFYPRTGNTFYNENFKGKVTLTADKSSNTAYMQLSSLTSEDSAVYLCARAGTGFDYWGQGTTLTVSSASTKGPSVFPLAPCSRSTSESTAALGCLVKDYFPEPVTVSWNSGALTSGVHTFPAVLQSSGLYSLSSVVTVPSSSLGTKTYTCNVDHKPSNTKVDKRVESKYGPPCPPCPAPEAAGGPSVFLFPPKPKDTLMISRTPEVTCVVVDVSQEDPEVQFNWYVDGVEVHNAKTKPREEQFNSTYRVVSVLTVLHQDWLNGKEYKCKVSNKGLPSSIEKTISKAKGQPREPQVYTLPPSQEEMTKNQVSLTCLVKGFYPSDIAVEWESNGQPENNYKTTPPVLDSDGSFFLYSKLTVDKSRWQEGNVFSCSVMHEALHNHYTQKSLSLSLG light: EIVMTQSPATLSLSVGERVTLSCKASENVGGYVSWYQQKPDQSPKLLIYGASSRHTGVPDRFTGSGSETDFTLTISSVQAEDLAAYHCGQNYIYPFTFGGGTKLEIKRTVAAPSVFIFPPSDEQLKSGTASVVCLLNNFYPREAKVQWKVDNALQSGNSQESVTEQDSKDSTYSLSSTLTLSKADYEKHKVYACEVTHQGLSSPVTKSFNRGEC	3
human-mouse chimeric anti-TrkA monoclonal antibody 23E12 (H0L0-IgG4) (antibody) heavy: QVQLQQSGAELVRPGTSVKISCKASGYAFTNYWLGWMKQRPGHGLEWIGDFYPRTGNTFYNENFKGKVTLTADKSSNTAYMQLSSLTSEDSAVYLCARAGTGFDYWGQGTTLTVSSASTKGPSVFPLAPCSRSTSESTAALGCLVKDYFPEPVTVSWNSGALTSGVHTFPAVLQSSGLYSLSSVVTVPSSSLGTKTYTCNVDHKPSNTKVDKRVESKYGPPCPPCPAPEAAGGPSVFLFPPKPKDTLMISRTPEVTCVVVDVSQEDPEVQFNWYVDGVEVHNAKTKPREEQFNSTYRVVSVLTVLHQDWLNGKEYKCKVSNKGLPSSIEKTISKAKGQPREPQVYTLPPSQEEMTKNQVSLTCLVKGFYPSDIAVEWESNGQPENNYKTTPPVLDSDGSFFLYSKLTVDKSRWQEGNVFSCSVMHEALHNHYTQKSLSLSLG light: SIVMTQSPKSMSMSVGERVTLSCKASENVGGYVSWYQQKPDQSPKLLIYGASSRHTGVPDRFTGSGSETDFTLTISSVQAEDLAAYHCGQNYIYPFTFGGGTKLEIKRTVAAPSVFIFPPSDEQLKSGTASVVCLLNNFYPREAKVQWKVDNALQSGNSQESVTEQDSKDSTYSLSSTLTLSKADYEKHKVYACEVTHQGLSSPVTKSFNRGEC	3

The next lines start with the values.

OD450	Binder
3	humanized anti-TrkA monoclonal antibody H3L1-IgG4 (antibody, V domains shown) VH: EVQLLESGGGLVQPGGSLKLSCKASGYAFTNYWLGWMKQRPGHGLEWIGDFYPRTGNTFYNENFKGQVTMSVDKSITTAYLQWNSLKASDTAMYYCARAGTGFDYWGQGTTLTVSS VL: EIVMTQSPATLSLSVGERVTLSCKASENVGGYVSWYQQKPDQSPKLLIYGASSRHTGVPDRFTGSGSETDFTLTISSVQAEDLAAYHCGQNYIYPFTFGGGTKLEIKR
3	humanized anti-TrkA monoclonal antibody H3L2-IgG4 (antibody, V domains shown) VH: EVQLLESGGGLVQPGGSLKLSCKASGYAFTNYWLGWMKQRPGHGLEWIGDFYPRTGNTFYNENFKGQVTMSVDKSITTAYLQWNSLKASDTAMYYCARAGTGFDYWGQGTTLTVSS VL: EIVMTQSPATLSLSVGERVTLSCKASENVGGYVSWYQQKPDQSPKLLIYGASSRATGVPDRFTGSGSETDFTLTISSVQAEDLAAYHCGQNYIYPFTFGGGTKLEIKR
